# T1: insulin B-chain peptide on HLA-DRA*01:01 / HLA-DRB1*04:01 (human)
# T1 peptide: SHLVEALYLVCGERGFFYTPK
# T2: preproinsulin peptide on HLA-DQA1*05:01 / HLA-DQB1*02:01 (human)
# T2 peptide: YLVCGERGFFYTPKT
# T3: preproinsulin peptide on HLA-DQA1*05:01 / HLA-DQB1*02:02 (human)
# T3 peptide: YLVCGERGFFYTPKT
# T4: preproinsulin peptide on HLA-DRA*01:01 / HLA-DRB1*03:01 (human)
# T4 peptide: AEDLQVGQVELGGGP
# T5: preproinsulin peptide on HLA-DRA*01:01 / HLA-DRB1*09:01 (human)
# T5 peptide: AEDLQVGQVELGGGP
# T6: preproinsulin peptide on HLA-DRA*01:01 / HLA-DRB1*03:01 (human)
# T6 peptide: QKRGIVEQCCTSICS
# Columns and labels:
# Test in all cases: activation reporter or marker
# [1] = target: T1, insulin B-chain peptide on …
# [2] = target: T2, preproinsulin peptide on HLA-DQA1*05:01 …
# [3] = target: T3, preproinsulin peptide on HLA-DQA1*05:01 …
# [4] = target: T4, preproinsulin peptide on HLA-DRA*01:01 …
# [5] = target: T5, preproinsulin peptide on HLA-DRA*01:01 …
# [6] = target: T6, preproinsulin peptide on HLA-DRA*01:01 …
binder,measurement,setting,value
23.G8 (TCR) alpha TRAV39 TRAJ56 CDR3: CAWRTGANSKLTF beta TRBV24-1 TRBJ2-2 CDR3: CATGLAANTGELFF,binding result,[1],no recognition
56.B1 (TCR) alpha TRAV13-1 TRAJ40 CDR3: CAVLSPSGTYKYIF beta TRBV7-9 TRBJ1-4 CDR3: CASSLMGNPHEKLFF,binding result,[2],recognises
same,binding result,[3],recognises
55.C10 (TCR) alpha TRAV26-1 TRAJ26 CDR3: CIVRSHGQNFVF beta TRBV20-1 TRBJ2-7 CDR3: CSARPGTRNYEQYF,binding result,[4],no recognition
same,binding result,[5],no recognition
95.A9-1 (TCR) alpha TRAV9-2 TRAJ18 CDR3: CALRTDRGSTLGRLYF beta TRBV11-2 TRBJ1-6 CDR3: CASSLQSSYNSPLHF,binding result,[6],no recognition

# Reference: PMC8027116 (2021)
